Legend:
[1] = target: native Oo-ASP-1 (activation-associated secreted protein 1 of Ostertagia ostertagi) (Ostertagia ostertagi); test: reducing and non-reducing SDS-PAGE + LC-MS of tryptic peptides; denaturing SDS-PAGE with and without β-mercaptoethanol; 1D and 2D LC-MS of reduced (DTT/IAA) and non-reduced tryptic digests to map intra- and intermolecular disulphide bridges; disulphide-linked dimer
[2] = target: Pichia pastoris recombinant Oo-ASP-1 (Ostertagia ostertagi); test: as above

Substance	stoichiometry N [1]	stoichiometry N [2]
native Oo-ASP-1 (activation-associated secreted protein 1 of Ostertagia ostertagi) (natural protein)	2	–
Pichia pastoris recombinant Oo-ASP-1 (natural protein)	–	2

— publication PMC10665551
